Experimental data as given in patent US20140357577A1, “HIV Membrane Fusion Inhibitors” (priority 2011, published 2014).
Starred links: 1 amine or outer side, 2 acyl side, 3 side chain; linkers in the order of their positions; H or OH if unused. Positions of bridges follow the written chain, without caps; N, C: chain ends. Non-standard residues stand in square brackets, D forms with d. Primed or numbered codes have the meaning given here. *: point of attachment. cholesteryl‑oxycarbonylmethyl = CC(C)CCC[C@@H](C)[C@H]1CC[C@H]2[C@@H]3CC=C4C[C@@H](OC(=O)C*)CC[C@]4(C)[C@H]3CC[C@]12C; B21″ = 2,7-dimethylnaphtyl linker joining two Cys, c1cc2ccc(C[*:2])cc2cc1C[*:1]; tBuAla = CC(C)(C)C[C@H](N)C(=O)O; Suc = O=C(CCC(=O)[*:2])[*:1]; hCys = N[C@@H](CCS)C(=O)O; Nva = CCC[C@H](N)C(=O)O; Abu = CC[C@H](N)C(=O)O; Hexanoyl = CCCCCC(=O)*; Pentanoyl = CCCCC(=O)*; B1 = not defined here; B3 = not defined here; Butyryl = CCCC(=O)*

target: gp41 of HIV-1 strain HXB2D with mutation V38A (HIV-1 strain HXB2D, UniProt P04578); assay: cell-based or functional assay; details: not given

| Molecule | fold change in EC50, HIV-HXB2D V38A mutant |
| --- | --- |
| Suc-CYLACIEALIRAAQEQQEKNEAALR-NH2 (linker 1-5 via B1; reading uncertain) [peptide 26] | 19 fold |
| Suc-ACYLACIEALIRA[Nva]QEQQEKNEAALR-NH2 (linker 2-6 via B1; reading uncertain) [peptide 46] | 6 fold |
| Hexanoyl-ECYLACIEELIRKAQEQQEKNEAALR-NH2 (linker 2-6 via B1; reading uncertain) [peptide 42] | 2 fold |
| Ac-ACYLACIEALIRKAQEQQEKNEAALR-NH2 (linker 2-6 via B1; reading uncertain) [peptide 48] | 10 fold |
| Suc-ACYLACIDELIKKAQEQQEKNEAALR-NH2 (linker 2-6 via B1; reading uncertain) [peptide 30] | 8 fold |
| Pentanoyl-ECYLACIEALIRAAQEQQEKNEAALR-NH2 (linker 2-6 via B1; reading uncertain) [peptide 38] | 3 fold |
| Suc-ACYLACIEELIRKAQEQQEKNEAAL[dR]-NH2 (linker 2-6 via B1; reading uncertain) [peptide 34] | 19 fold |
| Ac-ECYLACIEELIRKAQEQQEKNEAALR-NH2 (linker 2-6 via B1; reading uncertain) [peptide 37] | 7 fold |
| Suc-CYLACIEELIRKAQEQQEKNEAAL[tBuAla]-NH2 (linker 1-5 via B1; reading uncertain) [peptide 24] | 26 fold |
| Ac-ECYLACIEALIRAAQEQQEKNEAALR-NH2 (linker 2-6 via B1; reading uncertain) [peptide 45] | 14 fold |
| Suc-ENYLRLIEELIRKAQEQQEKNEAALRGSGC(cholesteryl‑oxycarbonylmethyl)-NH2 (SMILES CC[C@H](C)[C@H](NC(=O)[C@H](CC(C)C)NC(=O)[C@H](CCC(=O)O)NC(=O)[C@H](CCC(=O)O)NC(=O)[C@@H](NC(=O)[C@H](CC(C)C)NC(=O)[C@H](CCCNC(=N)N)NC(=O)[C@H](CC(C)C)NC(=O)[C@H](Cc1ccc(O)cc1)NC(=O)[C@H](CC(N)=O)NC(=O)[C@H](CCC(=O)O)NC(=O)CCC(=O)O)[C@@H](C)CC)C(=O)N[C@@H](CCCNC(=N)N)C(=O)N[C@@H](CCCCN)C(=O)N[C@@H](C)C(=O)N[C@@H](CCC(N)=O)C(=O)N[C@@H](CCC(=O)O)C(=O)N[C@@H](CCC(N)=O)C(=O)N[C@@H](CCC(N)=O)C(=O)N[C@@H](CCC(=O)O)C(=O)N[C@@H](CCCCN)C(=O)N[C@@H](CC(N)=O)C(=O)N[C@@H](CCC(=O)O)C(=O)N[C@@H](C)C(=O)N[C@@H](C)C(=O)N[C@@H](CC(C)C)C(=O)N[C@@H](CCCNC(=N)N)C(=O)NCC(=O)N[C@@H](CO)C(=O)NCC(=O)N[C@@H](CSCC(=O)O[C@H]1CC[C@@]2(C)C(=CC[C@H]3[C@@H]4CC[C@H]([C@H](C)CCCC(C)C)[C@@]4(C)CC[C@@H]32)C1)C(N)=O) [peptide 32] | 1 fold |
| Suc-ACYLACIEALIRAAQEQQEKNEAALR-NH2 (linker 2-6 via B1; reading uncertain) [peptide 43] | 19 fold |
| Suc-ACYLACIEELIRKAQEQQEKNEAALR-NH2 (linker 2-6 via B1; not fully specified; reading uncertain) [peptide 31] | 14 fold |
| Suc-ACYLACIDELIAKAQEQQEKNEAALR-NH2 (linker 2-6 via B1; reading uncertain) [peptide 36] | 23 fold |
| Suc-ECYLRCIEELIRKAQEQQEKNEAALR-NH2 (linker 2-6 via B1; reading uncertain) [peptide 29] | 7 fold |
| Suc-ACY[Nva]ACIEALIRAAQEQQEKNEAALR-NH2 (linker 2-6 via B1; reading uncertain) [peptide 44] | 15 fold |
| Suc-ECYLACIEALIRAAQEQQEKNEAALR-NH2 (linker 2-6 via B1; reading uncertain) [peptide 33] | 11 fold |
| Butyryl-ECYLACIEELIRKAQEQQEKNEAALR-NH2 (linker 2-6 via B1; reading uncertain) [peptide 40] | 3 fold |
| Ac-SWETWEREIENYTRQIYRILEESQEQQDRNERDLLE-NH2 [Sifuvirtide] | 1 fold |
| Suc-[hCys]YLA[hCys]IEALIRAAREQQEKNEALLR-NH2 (linker 1-5 via B1; reading uncertain) [peptide 28] | 4 fold |
| Suc-ACYLACIEALIRA[Abu]QEQQEKNEAALR-NH2 (linker 2-6 via B1; reading uncertain) [peptide 47] | 17 fold |
| Ac-ENYTRQIYRILEESQEQQDRNERDLL-NH2 [Sifuvirtide-PBD] | > 3 fold |
| Suc-CYLACIEELIRKAQEQQEKNEAAL[tBuAla]-NH2 (linker 1-5 via B3; reading uncertain) [peptide 27] | 28 fold |
| Pentanoyl-ECYLACIEELIRKAQEQQEKNEAALR-NH2 (linker 2-6 via B1; reading uncertain) [peptide 41] | 2 fold |
| Pentanoyl-ECYLACIEALIRAAQEQQEKNEAALR-NH2 (linker 2-6 via B21″; SMILES CCCCC(=O)N[C@@H](CCC(=O)O)C(=O)N[C@H]1CSCc2ccc3ccc(cc3c2)CSC[C@@H](C(=O)N[C@H](C(=O)N[C@@H](CCC(=O)O)C(=O)N[C@@H](C)C(=O)N[C@@H](CC(C)C)C(=O)N[C@H](C(=O)N[C@@H](CCCNC(=N)N)C(=O)N[C@@H](C)C(=O)N[C@@H](C)C(=O)N[C@@H](CCC(N)=O)C(=O)N[C@@H](CCC(=O)O)C(=O)N[C@@H](CCC(N)=O)C(=O)N[C@@H](CCC(N)=O)C(=O)N[C@@H](CCC(=O)O)C(=O)N[C@@H](CCCCN)C(=O)N[C@@H](CC(N)=O)C(=O)N[C@@H](CCC(=O)O)C(=O)N[C@@H](C)C(=O)N[C@@H](C)C(=O)N[C@@H](CC(C)C)C(=O)N[C@@H](CCCNC(=N)N)C(N)=O)[C@@H](C)CC)[C@@H](C)CC)NC(=O)[C@H](C)NC(=O)[C@H](CC(C)C)NC(=O)[C@H](Cc2ccc(O)cc2)NC1=O) [peptide 39] | 2 fold |
| Suc-ANYLALIEALIRAAQEQQEKNEAALRGSGC(cholesteryl‑oxycarbonylmethyl)-NH2 (SMILES CC[C@H](C)[C@H](NC(=O)[C@H](CC(C)C)NC(=O)[C@H](C)NC(=O)[C@H](CCC(=O)O)NC(=O)[C@@H](NC(=O)[C@H](CC(C)C)NC(=O)[C@H](C)NC(=O)[C@H](CC(C)C)NC(=O)[C@H](Cc1ccc(O)cc1)NC(=O)[C@H](CC(N)=O)NC(=O)[C@H](C)NC(=O)CCC(=O)O)[C@@H](C)CC)C(=O)N[C@@H](CCCNC(=N)N)C(=O)N[C@@H](C)C(=O)N[C@@H](C)C(=O)N[C@@H](CCC(N)=O)C(=O)N[C@@H](CCC(=O)O)C(=O)N[C@@H](CCC(N)=O)C(=O)N[C@@H](CCC(N)=O)C(=O)N[C@@H](CCC(=O)O)C(=O)N[C@@H](CCCCN)C(=O)N[C@@H](CC(N)=O)C(=O)N[C@@H](CCC(=O)O)C(=O)N[C@@H](C)C(=O)N[C@@H](C)C(=O)N[C@@H](CC(C)C)C(=O)N[C@@H](CCCNC(=N)N)C(=O)NCC(=O)N[C@@H](CO)C(=O)NCC(=O)N[C@@H](CSCC(=O)O[C@H]1CC[C@@]2(C)C(=CC[C@H]3[C@@H]4CC[C@H]([C@H](C)CCCC(C)C)[C@@]4(C)CC[C@@H]32)C1)C(N)=O) [peptide 35] | 4 fold |

test system: HIV wild type virus strain IIIB; assay: Standard Anti-Viral-Experiment (AVE), HIV-1 replication assay in MT4-LTR-EGFP cells, wild type IIIB; format: cell-based; details: 3 days, EGFP signal
Source text: • Standard Anti-Viral-Experiment “AVE” (wild type HIV strain IIIB+HIV strain HXB2D side directed mutants V38A and Q40H)
The HIV-1 replication assay measures virus replication (HIV wild type virus strain 111B or HXB2D, or a HIV mutant virus strain HXB2D with mutation V38A or Q40H in the gp41 gene) as an induction of enhanced green fluorescent protein (EGFP) expression. The indicator MT4-LTR-EGFP cells contain an EGFP gene under the control of the HIV-1 LTR promoter sequence. Successful HIV-1 infection results in viral Tat protein expression and subsequent induction of EGFP expression. Compounds/peptides inhibiting HIV-1 infection are expected to reduce EGFP expression as compared to the untreated HIV-infected control.
Serial 4-fold dilutions of test compounds/peptides were mixed with HIV-1 (IIIB, HXB2D, or a HXB2D mutant virus (V38A or Q40H)) and MT4-LTR-EGFP cells and incubated at 37° C. After 3 days, the wells were examined for EGFP expression using an argon laser-scanning microscope. The effective compound/peptide concentration inhibiting 50% of the virus-induced EGFP signal (EC50) was determined by linear interpolation of the EGFP signal vs. logarithm of the compound concentration; (T20, C34 and Sifuvirtide were added as reference compounds). For the V38A and Q40H mutant viruses, results were reported as a fold change in EC50, as compared with a drug-susceptible wild type strain HXB2D, which forms the backbone of the mutant virus. • Standard AVE (50% Human Serum)

| Molecule | EC50 |
| --- | --- |
| NNYTSLIHSLIEESQNQQEKNEQELL [C34-PBD*, reference compound] | > 49.2 µM |
